From publication PMC5963734 (Neuron, 2018)
No end group written: not given here.

Molecular target: full length calmodulin (recombinant, Xenopus cDNA), used with Ca2+ (Xenopus, UniProt P0DP33 1-149)
Experiment: fluorescence polarisation

- binding result: binds
Binder: fluorescein-MDCLCIVTTKKYR (cysteine pairing not given here) [fluorescein-labeled PSD-95 peptide 1-13]
